According to patent publication US12084522B2, “Peptides, combination of peptides, and cell based medicaments for use in immunotherapy against urinary bladder cancer and other cancers” (Immatics Biotechnologies GmbH, priority 2016, dated 2024):

Target: HLA-A*02:01 (Homo sapiens, UniProt P04439, D140Y/D185E/D98H/E176V/E277Q/G131W/G231S/I119V/I121R/I166T/I218V/L300P/L318F/N151K/N90K/P208A/P217A/Q86G/Q94H/R138H/R169H/T345S)
Experiment: MHC binding assay (UV-ligand exchange, β2m ELISA, peptide exchange yield)
Details: binding to HLA-A*02:01 ranged by peptide exchange yield (UV-ligand exchange, β2m ELISA)
Source text: Candidate peptides for T cell based therapies according to the present invention were further tested for their MHC binding capacity (affinity). The individual peptide-MHC complexes were produced by UV-ligand exchange, where a UV-sensitive peptide is cleaved upon UV-irradiation, and exchanged with the peptide of interest as analyzed. Only peptide candidates that can effectively bind and stabilize the peptide-receptive MHC molecules prevent dissociation of the MHC complexes. To determine the yield of the exchange reaction, an ELISA was performed based on the detection of the light chain (β2 m) of stabilized MHC complexes. The assay was performed as generally described in Rodenko et al. (Rodenko et al., 2006).
96 well MAXISorp plates (NUNC) were coated over night with 2 μg/ml streptavidin in PBS at room temperature, washed 4× and blocked forth at 37° C. in 2% BSA containing blocking buffer. Refolded HLA-A*02:01/MLA-001 monomers served as standards, covering the range of 15-500 ng/ml. Peptide-MHC monomers of the UV-exchange reaction were diluted 100 fold in blocking buffer. Samples were incubated for 1 h at 37° C., washed four times, incubated with 2 ug/ml HRP conjugated anti-β2 m for 1 h at 37° C., washed again and detected with TMB solution that is stopped with […]. Absorption was measured at 450 nm. Candidate peptides that show a high exchange yield (preferably higher than 50%, most preferred higher than 75%) are generally preferred for a generation and production of antibodies or fragments thereof, and/or T cell receptors or fragments thereof, as they show sufficient avidity to the MHC molecules and prevent dissociation of the MHC complexes.

| Substance | Peptide exchange |
| --- | --- |
| 100 (SLQSFIHGV; listed as Homo sapiens) [compound 100] | +++ (>50 = +++) |
| 101 (ILDEMRAQL; listed as Homo sapiens) [compound 101] | +++ (>50 = +++) |
| 102 (GLYEGLDWL; listed as Homo sapiens) [compound 102] | +++ (>50 = +++) |
| 103 (GLYSGEVLV; listed as Homo sapiens) [compound 103] | ++++ (>75% = ++++) |
| 105 (TLFPSKIGV; listed as Homo sapiens) [compound 105] | +++ (>50 = +++) |
| 106 (ILLDTPLFL; listed as Homo sapiens) [compound 106] | +++ (>50 = +++) |
| 107 (LTLAKLEKV; listed as Homo sapiens) [compound 107] | ++ (>20% = ++) |
| 108 (YLDPNQRDL; listed as Homo sapiens) [compound 108] | +++ (>50 = +++) |
| 109 (RLIDDMVAQA; listed as Homo sapiens) [compound 109] | +++ (>50 = +++) |
| 110 (VLFNIDGQGNHV; listed as Homo sapiens) [compound 110] | +++ (>50 = +++) |
| 112 (YLDPSLNSL; listed as Homo sapiens) [compound 112] | +++ (>50 = +++) |
| 113 (FVFEPPPGV; listed as Homo sapiens) [compound 113] | ++++ (>75% = ++++) |
| 115 (SLLDFERSL; listed as Homo sapiens) [compound 115] | +++ (>50 = +++) |
| 116 (QLAWFDTDL; listed as Homo sapiens) [compound 116] | +++ (>50 = +++) |
| 117 (YMLDIFHEVL; listed as Homo sapiens) [compound 117] | +++ (>50 = +++) |
| 118 (RLLDFPTLLV; listed as Homo sapiens) [compound 118] | +++ (>50 = +++) |
| 119 (SLDEKQNLV; listed as Homo sapiens) [compound 119] | +++ (>50 = +++) |
| 120 (IIIPEIQKV; listed as Homo sapiens) [compound 120] | +++ (>50 = +++) |
| 121 (QLQGYLRSV; listed as Homo sapiens) [compound 121] | +++ (>50 = +++) |
| 122 (ILEPSLYTV; listed as Homo sapiens) [compound 122] | ++++ (>75% = ++++) |
| 123 (NLAGVYSEV; listed as Homo sapiens) [compound 123] | ++++ (>75% = ++++) |

| Substance | Peptide exchange |
| --- | --- |
| 124 (QIDGTLSTI; listed as Homo sapiens) [compound 124] | +++ (>50 = +++) |
| 127 (KLNATNIEL; listed as Homo sapiens) [compound 127] | +++ (>50 = +++) |
| 128 (KLWGQSIQL; listed as Homo sapiens) [compound 128] | ++++ (>75% = ++++) |
| 129 (YLEPKLTQV; listed as Homo sapiens) [compound 129] | +++ (>50 = +++) |
| 130 (TLTSKLYSL; listed as Homo sapiens) [compound 130] | ++++ (>75% = ++++) |
| 131 (ILTSIQSLL; listed as Homo sapiens) [compound 131] | ++++ (>75% = ++++) |
| 132 (YILEGEPGKV; listed as Homo sapiens) [compound 132] | ++++ (>75% = ++++) |
| 133 (GLDPLGYEIQL; listed as Homo sapiens) [compound 133] | ++++ (>75% = ++++) |
| 134 (IVAPGTFEV; listed as Homo sapiens) [compound 134] | +++ (>50 = +++) |
| 135 (FLLPLIIVL; listed as Homo sapiens) [compound 135] | +++ (>50 = +++) |
| 136 (GLSEPIFQL; listed as Homo sapiens) [compound 136] | +++ (>50 = +++) |
| 137 (ALFPHLLQPVL; listed as Homo sapiens) [compound 137] | ++++ (>75% = ++++) |
| 138 (YLTNEGIQYL; listed as Homo sapiens) [compound 138] | +++ (>50 = +++) |
| 139 (LLYPTEITV; listed as Homo sapiens) [compound 139] | +++ (>50 = +++) |
| 140 (ALLDGRVQL; listed as Homo sapiens) [compound 140] | ++++ (>75% = ++++) |
| 141 (SMFGAGLTV; listed as Homo sapiens) [compound 141] | ++++ (>75% = ++++) |
| 142 (FLGENISNFL; listed as Homo sapiens) [compound 142] | +++ (>50 = +++) |
| 143 (TLVTGLASV; listed as Homo sapiens) [compound 143] | +++ (>50 = +++) |
| 144 (YLAGEAPTL; listed as Homo sapiens) [compound 144] | +++ (>50 = +++) |
| 145 (ALYPGQLVQL; listed as Homo sapiens) [compound 145] | +++ (>50 = +++) |
| 147 (QMLELITRL; listed as Homo sapiens) [compound 147] | +++ (>50 = +++) |
